Experimental data reported in article PMC11079029, “Intramolecular autoinhibition regulates the selectivity of PRPF40A tandem WW domains for proline-rich motifs” (Nature Communications, 2024).
Read-outs that look alike come from different tables or passages of the source.

Target: T1, PRPF40A WW12 (tandem WW domains, residues 141–236) (Homo sapiens, UniProt O75400)
T1 construct: WW12 141–236, WW12long 141–248, and N-ext-WW12 56–236; 6xHis-TEV site (N, cleaved yes); made in house; host or cells: Escherichia coli BL21(DE3)
T1 sequence (O75400 141-236): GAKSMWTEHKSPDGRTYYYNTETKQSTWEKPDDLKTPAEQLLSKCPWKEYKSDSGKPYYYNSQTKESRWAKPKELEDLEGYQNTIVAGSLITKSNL
Assay: ITC of PRPF40A WW12 with GB1-tagged proline-rich peptides and constructs
Format: binding
Conditions: for DH: ITC binding enthalpy, as E4; for Kd: ITC as E4, read-out: Kd (mM), Individual values
Text: PRPF40A isoform 1 sequences (N-ter 1–310, WW12short 141–223, WW12 141–236, WW12long 141–248, and N-ext-WW12 56–236) were amplified from a purchased DNA fragment (IDT) and cloned using NcoI and KpnI restriction sites into a pETM11 vector encoding 6xHis and TEV cleavage site as a N-terminal tag. SF1 (Pro A 410–468, Pro B 468–539, Pro C 539–594, Pro D 594–639, Pro BC 468–594, Pro CD 539–639, Pro BCD 468–639 and Pro ABCD 410–639) and SF3A1 (Middle Pro 364–413 and C-ter Pro 552–683) constructs were prepared in a similar manner using a pET24 vector with a 6xHis, GB1 and TEV cleavage site as N-terminal fusion cassette. 16-mer SF1 constructs (Table 1) and polyproline peptides (P6, P8, P10, P13, P16, P19, P22, P25, and P29) were cloned in the same pET24 vector with GB1 tag by direct ligation of purchased oligonucleotides (Eurofins). All peptide sequences contained N and C-terminal common residues to avoid boundary effects on binding: TEVsite-GAMSGS-peptide-SGSN. Mutants of PRPF40A WW12 and N-ext-WW12 constructs were prepared by site-directed mutagenesis. The truncated version of PRPF40A WW12 (141-217) was a gift from Dr. María Macías (IRB, Spain). All used oligonucleotides were purchased from Eurofins Genomics and are shown in Supplementary Table 6.
Resuspended cell pellets in 20 mM Tris pH 8.0, 500 mM NaCl, 10 mM imidazole, 0.5 mM TCEP, and protease inhibitors mix (SERVA) were lysed by cell disruption in a French press. Clear lysates, after centrifugation (at 18,000 g) and filtering, were loaded into Ni-NTA resin. The resin was then washed with 20 mM imidazole containing buffer, and the desired protein was eluted with 500 mM imidazole. PRPF40A constructs were then subjected to TEV protease treatment (homemade at a final concentration of ≈50 μg/ml), dialyzed overnight at 4 °C against an imidazole-free buffer, and then loaded again to Ni-NTA resin; desired digested proteins were obtained in the flow-through and wash fractions while uncleaved protein, TEV protease, and impurities remained bound to the resin. Cleaved PRPF40A proteins and GB1-tagged SF1, SF3A1, and polyproline constructs were further purified by size-exclusion chromatography on a HiLoad 16/60 Superdex 75 column (GE Healthcare) equilibrated with 20 mM sodium phosphate, pH 6.5, 100 mM NaCl and 1 mM DTT buffer. For the purification of PRPF40A WW12 in complex with SF1 peptide, cell pellets of recombinant expression for both proteins were mixed and processed together following the Ni-NTA—TEV digestion—reverse Ni-NTA—SEC-75 protocol; where the complex remained bound in a 1:1 stoichiometry throughout the whole purification (corroborated by NMR). Molecular weight of each sample was confirmed by mass spectrometry, purity was checked by PAGE-SDS, and protein concentrations were determined from the aromatic contribution to the UV absorbance spectra at 280 nm.
Experiments were conducted on a MicroCAl PEAQ-ITC (Malvern Instruments, UK) at 25 °C in 20 mM sodium phosphate pH 6.5 and 100 mM NaCl. PRPF40A was titrated into N-terminal GB1 tagged SF1 or polyproline constructs and vice versa with similar results. Protein concentrations in the cell were around 20–40 μM, while in the syringe ranged between 200 and 500 μM. Experiments were performed at least in duplicate with injections of 1.5 μL (0.4 μL for first point) separated by 150 s delays to recover thermal power baseline and continuous stirring in the cell (750 rpm) for correct mixing. The reference cell was filled with water in all experiments. Data were processed by removing the blank experiment (using digested GB1 fusion protein) and adjusted to one-site binding model with Malvern PEAQ-ITC Analysis software (Malvern Instruments, UK).

[1] = source data of Fig. 4C,D, individual value 1
[2] = source data of Fig. 4C,D, individual value 2
[3] = source data of Fig. 4C, individual value 3

B1: SF1 Pro B: GB1-tagged SF1 construct, residues 468–539 (protein)
chain: GMMPPPPMGMMPPPPPPPSGQPPPPPSGPLPPWQQQQQQPPPPPPPSSSMASSTPLPWQQNTTTTTTSAGTG
modifications: left off: His6, N-terminal, state not stated | GB1, N-terminal, kept
DH: -17.3 ± 3.27 kcal/mol

B2: SF1 Pro ABCD: GB1-tagged SF1 construct, residues 410–639 (protein)
chain: GHPMQHNPNGPPPPWMQPPPPPMNQGPHPPGHHGPPPMDQYLGSTPVGSGVYRLHQGKGMMPPPPMGMMPPPPPPPSGQPPPPPSGPLPPWQQQQQQPPPPPPPSSSMASSTPLPWQQNTTTTTTSAGTGSIPPWQQQQAAAAASPGAPQMQGNPTMVPLPPGVQPPLPPGAPPPPPPPPPGSAGMMYAPPPPPPPPMDPSNFVTMMGMGVAGMPPFGMPPAPPPPPPQN
modifications: left off: His6, N-terminal, state not stated | GB1, N-terminal, kept
DH: -67.04 ± 9.68 kcal/mol
Kd [1]: 0.00541 mM
Kd [2]: 0.0044 mM

B3: SF1 Pro BCD: GB1-tagged SF1 construct, residues 468–639 (protein)
chain: GMMPPPPMGMMPPPPPPPSGQPPPPPSGPLPPWQQQQQQPPPPPPPSSSMASSTPLPWQQNTTTTTTSAGTGSIPPWQQQQAAAAASPGAPQMQGNPTMVPLPPGVQPPLPPGAPPPPPPPPPGSAGMMYAPPPPPPPPMDPSNFVTMMGMGVAGMPPFGMPPAPPPPPPQN
modifications: left off: His6, N-terminal, state not stated | GB1, N-terminal, kept
DH: -65.49 ± 8.6 kcal/mol
Kd [1]: 0.00293 mM
Kd [2]: 0.00436 mM

B4: SF1 Pro CD: GB1-tagged SF1 construct, residues 539–639 (protein)
chain: GSIPPWQQQQAAAAASPGAPQMQGNPTMVPLPPGVQPPLPPGAPPPPPPPPPGSAGMMYAPPPPPPPPMDPSNFVTMMGMGVAGMPPFGMPPAPPPPPPQN
modifications: left off: His6, N-terminal, state not stated | GB1, N-terminal, kept
DH: -46.2 ± 3.11 kcal/mol
Kd [1]: 0.00283 mM
Kd [2]: 0.00432 mM
Kd [3]: 0.00426 mM

B5: SF1 Pro BC: GB1-tagged SF1 construct, residues 468–594 (protein)
chain: GMMPPPPMGMMPPPPPPPSGQPPPPPSGPLPPWQQQQQQPPPPPPPSSSMASSTPLPWQQNTTTTTTSAGTGSIPPWQQQQAAAAASPGAPQMQGNPTMVPLPPGVQPPLPPGAPPPPPPPPPGSAG
modifications: left off: His6, N-terminal, state not stated | GB1, N-terminal, kept
DH: -28.99 ± 1.65 kcal/mol
Kd [1]: 0.00363 mM
Kd [2]: 0.00776 mM
Kd [3]: 0.00911 mM

B6: SF3A1 C-ter Pro: GB1-tagged SF3A1 construct, residues 552–683 (protein)
chain: EIPQQPPPPSSATNIPSSAPPITSVPRPPTMPPPVRTTVVSAVPVMPRPPMASVVRLPPGSVIAPMPPIIHAPRINVVPMPPSAPPIMAPRPPPMIVPTAFVPAPPVAPVPAPAPMPPVHPPPPMEDEPTSK
modifications: left off: His6, N-terminal, state not stated | GB1, N-terminal, kept
DH: -68.83 ± 18.8 kcal/mol
Kd [1]: 0.0238 mM
Kd [2]: 0.0148 mM
